This note sets out measurements from publication PMC5446181.

In assay [1] the target is TChz, truncated recognition fragment (middle region, MoRF) of the histone chaperone Chz1 (UniProt P40019). The assay is described as follows: ITC; 200 uM TBZ_(Y139W) injected into 20 uM TChz, 298 K, NANO-ITC, 1:1 isothermal binding model.
Assay [2] has as its target TBZ_(Y139W), tryptophan variant (pseudo-WT) of the H2A.Z-H2B linked fragment. The experiment in a line: stopped-flow fluorescence; TChz 4, 6, 8, 12, 20 uM mixed with 2 uM TBZ_(Y139W), 0.01 M PBS, 25 C, excitation 290 nm, 320 nm cutoff filter; global numerical fit to a two-step induced-fit model.

Turning to “TBZ_(Y139W), tryptophan variant (pseudo-WT) of the H2A.Z-H2B linked fragment (domain or fragment)”, in assay [1], the Kd was 330 nM, the dH was -8.14 kcal/mol and the stoichiometry N is 0.97.

B1: TChz, truncated recognition fragment (middle region, MoRF) of the histone chaperone Chz1 (domain or fragment)
chain: DMDDAKLDALMGNEGEEEEDDLAEIDTSNIITSGRRTRGKVIDYKKTAEELDKKEPSTGSKD
On to B1, for which, in assay [2], the k1+ (first step, association to the intermediate, induced-fit model) came out at 6.78e+06 M⁻¹ s⁻¹; the k1− (first step, dissociation of the intermediate, induced-fit model) was found to be 53.4 s⁻¹; the k2+ as the column head prints it a second time (taken as k2−, second step reverse, induced-fit model) amounted to 9.88 s⁻¹.
